In the RNAGym collection of RNA variant scans (doi:10.7554/elife.80360):

B1: Hammerhead Ribozyme (parent)
chain: ACCGGAUGUGCUUUCCGGUCUGAUGAGUCCGUGAGGACGAAACAG

Variants of: B1
Assay: self-cleavage, relative activity (ratio to wild type); higher = more cleavage; co-transcriptional

Variant | self-cleavage
ACCGGAUGUGCUUUUCGGUCUGAUGAGUCCGCGAGGACGAAACAG [C15U U32C] | 0.93
ACCGGAUGUGCUUUUCGGUCUGAUGAGUCCGAGAGGACGAAACAG [C15U U32A] | 1
ACCGGAUGUGCUUUUCGGUCUGAUGAGUCCGGGAGGACGAAACAG [C15U U32G] | 0.623
ACCGGAUGUGCUUUUCUGUCUGAUGAGUCCGUGAGGACGAAACAG [C15U G17U] | 0.476
ACCGGAUGUGCUUUUCCGUCUGAUGAGUCCGUGAGGACGAAACAG [C15U G17C] | 0.399
ACCGGAUGUGCUUUUCAGUCUGAUGAGUCCGUGAGGACGAAACAG [C15U G17A] | 0.556
ACCGGAUGUGCUUUUCGGUCUGAUGAGUCCGUGAGGACGGAACAG [C15U A40G] | 0.269
ACCGGAUGUGCUUUUCGGUCUGAUGAGUCCGUGAGGACGUAACAG [C15U A40U] | 0.307
ACCGGAUGUGCUUUUCGGUCUGAUGAGUCCGUGAGGACGAAAGAG [C15U C43G] | 0.305
ACCGGAUGUGCUUUUCGGUCUGAUGAGUCCGUGAGGACGAAAUAG [C15U C43U] | 0.483
ACCGGAUGUGCUUUUCGGUCUGAUGAGUCCGUGAGGACGAAAAAG [C15U C43A] | 0.413
ACCGGAUGUGCUUUCAGGUCUGAUGAGUCCGUGUGGACGAAACAG [C16A A34U] | 0.719
ACCGGAUGUGCUUUCAGGUCUGAUGAGUCCGUGCGGACGAAACAG [C16A A34C] | 0.799
ACCGGAUGUGCUUUCAGGUCUGAUGAGUCCGUGGGGACGAAACAG [C16A A34G] | 1.17
ACCGGAUGUGCUUUUCGGUCUGAUGAAUCCGUGAGGACGAAACAG [C15U G27A] | 0.687
ACCGGAUGUGCUUUUCGGUCUGAUGAUUCCGUGAGGACGAAACAG [C15U G27U] | 0.579
ACCGGAUGUGCUUUUCGGUCUGAUGACUCCGUGAGGACGAAACAG [C15U G27C] | 0.749
ACCGGAUGUGCUUUUCGGUCUGAUGAGCCCGUGAGGACGAAACAG [C15U U28C] | 0.803
ACCGGAUGUGCUUUUCGGUCUGAUGAGGCCGUGAGGACGAAACAG [C15U U28G] | 0.568

Variant | self-cleavage
ACCGGAUGUGCUUUUCGGUCUGAUGAGACCGUGAGGACGAAACAG [C15U U28A] | 0.516
ACCGGAUGUGCUUUCAGGUCUGAUGAGUCCGUGAGGAUGAAACAG [C16A C38U] | 0.85
ACCGGAUGUGCUUUCAGGUCUGAUGAGUCCGUGAGGAAGAAACAG [C16A C38A] | 0.631
ACCGGAUGUGCUUUCAGGUCUGAUGAGUCCGUGAGGAGGAAACAG [C16A C38G] | 0.542
ACCGGAUGUGCUUUUCGGUCUGAUGAGUCGGUGAGGACGAAACAG [C15U C30G] | 0.641
ACCGGAUGUGCUUUUCGGUCUGAUGAGUCAGUGAGGACGAAACAG [C15U C30A] | 0.696
ACCGGAUGUGCUUUUCGGUCUGAUGAGUCUGUGAGGACGAAACAG [C15U C30U] | 0.735
ACCGGAUGUGCUUUUGGGUCUGAUGAGUCCGUGAGGACGAAACAG [C15U C16G] | 0.708
ACCGGAUGUGCUUUUAGGUCUGAUGAGUCCGUGAGGACGAAACAG [C15U C16A] | 0.76
ACCGGAUGUGCUUUUUGGUCUGAUGAGUCCGUGAGGACGAAACAG [C15U C16U] | 0.776
ACCGGAUGUGCUUUUCGGUCUGAUGAGUCCGUGAGGACGAUACAG [C15U A41U] | 0.352
ACCGGAUGUGCUUUUCGGUCUGAUGAGUCCGUGAGGACGAGACAG [C15U A41G] | 0.355
ACCGGAUGUGCUUUUCGGUCUGAUGAGUCCGUGAGGACGACACAG [C15U A41C] | 0.368
ACCGGAUGUGCUUUCAGGUCUGAUGAGUCCGUGAGGACGAAACGG [C16A A44G] | 1.35
ACCGGAUGUGCUUUCAGGUCUGAUGAGUCCGUGAGGACGAAACCG [C16A A44C] | 0.563
ACCGGAUGUGCUUUCAGGUCUGAUGAGUCCGUGAGGACGAAACUG [C16A A44U] | 0.5
ACCGGAUGUGCUUUCAGGUCUGAUGAGUCCGUGAGGACGGAACAG [C16A A40G] | 0.297
ACCGGAUGUGCUUUCAGGUCUGAUGAGUCCGUGAGGACGCAACAG [C16A A40C] | 0.402
ACCGGAUGUGCUUUCAGGUCUGAUGAGUCCGUGAGGACGUAACAG [C16A A40U] | 0.284

Variant | self-cleavage
ACCGGAUGUGCUUUCAGGUCUGAUGAGUCCGUGAGGACGAAACAG [C16A] | 1.21
ACCGGAUGUGCUUUUCGGUGUGAUGAGUCCGUGAGGACGAAACAG [C15U C20G] | 0.387
ACCGGAUGUGCUUUUCGGUUUGAUGAGUCCGUGAGGACGAAACAG [C15U C20U] | 0.627
ACCGGAUGUGCUUUUCGGUAUGAUGAGUCCGUGAGGACGAAACAG [C15U C20A] | 0.511
ACCGGAUGUGCUUUUCGGUCCGAUGAGUCCGUGAGGACGAAACAG [C15U U21C] | 0.556
ACCGGAUGUGCUUUUCGGUCAGAUGAGUCCGUGAGGACGAAACAG [C15U U21A] | 0.595
ACCGGAUGUGCUUUUCGGUCGGAUGAGUCCGUGAGGACGAAACAG [C15U U21G] | 0.859
ACCGGAUGUGCUUUUCGGUCUCAUGAGUCCGUGAGGACGAAACAG [C15U G22C] | 0.288
ACCGGAUGUGCUUUUCGGUCUAAUGAGUCCGUGAGGACGAAACAG [C15U G22A] | 0.288
ACCGGAUGUGCUUUUCGGUCUUAUGAGUCCGUGAGGACGAAACAG [C15U G22U] | 0.386
ACCGGAUGUGCUUUUCGGUCUGAUGAGUCCGUCAGGACGAAACAG [C15U G33C] | 0.847
ACCGGAUGUGCUUUUCGGUCUGAUGAGUCCGUUAGGACGAAACAG [C15U G33U] | 1.02
ACCGGAUGUGCUUUUCGGUCUGAUGAGUCCGUAAGGACGAAACAG [C15U G33A] | 0.875
ACCGGAUGUGCUUUUCGCUCUGAUGAGUCCGUGAGGACGAAACAG [C15U G18C] | 0.491
ACCGGAUGUGCUUUUCGAUCUGAUGAGUCCGUGAGGACGAAACAG [C15U G18A] | 0.554
ACCGGAUGUGCUUUUCGUUCUGAUGAGUCCGUGAGGACGAAACAG [C15U G18U] | 0.643
ACCGGAUGUGCUUUCAGGUCUGAUGUGUCCGUGAGGACGAAACAG [C16A A26U] | 0.59
ACCGGAUGUGCUUUCAGGUCUGAUGCGUCCGUGAGGACGAAACAG [C16A A26C] | 0.433
ACCGGAUGUGCUUUCAGGUCUGAUGGGUCCGUGAGGACGAAACAG [C16A A26G] | 0.37
